This note sets out measurements from patent publication US20230087785A1, “Leucine-Rich Repeat Kinase 2 Allosteric Modulators” (VIB VZW, priority 2020, published 2023).

Assay [1] addresses T1, Full-length human Leucine-rich repeat kinase 2 (LRRK2), N-terminal Strep/Flag (SF) tagged (human, UniProt Q5S007 1-2527).
T1 construct: Purified from HEK293T cells in presence of GDP or GTPγS; also called FL LRRK2; FL-LRRK2
The experiment in a line: MST; LRRK2 titrated to m-TAMRA-labelled Nb, 500 µM GDP. The protocol:
(§1) Microscale thermophoresis (MST) experiments were performed for determining equilibrium binding affinities (KD) of Nbs binding to FL-LRRK2. Therefore, Nb were site-specifically labelled at their C-terminus with m-TAMRA, using Sortase-mediated peptide exchange. The Nbs were recloned into a pHEN29 vector which is subsequently used to express and purify the Nbs with a C-terminal LPETGG-His₆-EPEA tag. Exchange of the latter peptide with an m-TAMRA-labeled GGGYK peptide (GenicBio, Shanghai, China) was performed using Sortase, and unlabeled Nb and unincorporated peptide were removed using a Ni-NTA and SEC purification step, respectively. […] After incubation at 4° C. for 30 mins, samples were loaded in capillaries and measurements were performed at 25° C. using 50-70% LED power and 80% laser intensity (laser on-time: 30 s, laser off-time: 5 s). All experiments were performed in triplicate.

Assay [2] concerns the target T1, Full-length human Leucine-rich repeat …. As to the kind of experiment: BLI; Nb on LRRK2 trapped on streptavidin sensor via biotinylated Nb42; steady-state fit. How it is done:
(§2) To determine the binding affinity (dissociation constant KD) of the ten Nbs for LRRK2, two methods were used in parallel: microscale thermophoresis (MST) and bio-layer interferometry (BLI). For the MST experiment, we site-specifically labeled the ten Nbs with a m-TAM RA fluorophore at its C-terminus, using sortase-mediated coupling, and then titrated increasing amounts of full-length LRRK2 to these Nbs (FIGS. 13A-13E).
(§3) Biolayer interferometry (BLI) measurements were performed using an Octet Red96 (Forte Bio, Inc.) system in a buffer containing 50 mM HEPES pH 8.0, 150 mM NaCl, 10 mM MgCl₂, 5% glycerol, 0.1% BSA, 0.05% Tween, at 25° C. and with shaking speed 1000 rpm. […] The biotinylated Nbs were first loaded on pre-equilibrated SA biosensors at a concentration of 5 μg/mL. This Nb-loaded sensor was then used to trap FL-LRRK2 from a 50 nM LRRK2 solution. […] All experiments were performed in triplicate.

In assay [3] the target is T2, LRRK2 COR-B construct (C-terminal part of the COR domain), His6-MBP tagged (human, UniProt Q5S007 1672-1840).
T2 construct: also called (MBP-)COR-B; not shown: N-terminal His6-MBP-tag of pDEST-566
The experiment in a line: ELISA, antigen coated on the plate, purified Nb detected via its EPEA tag. In outline:
(§4)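 The RocCOR, Roc, COR-B and kinase-WD40 constructs were coated side by side on one ELISA plate. Binding of each purified nanobody to every coated construct was then detected.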

In assay [4] the target is T3, LRRK2 Roc domain construct (human, UniProt Q5S007 1329-1520).
T3 construct: not shown: N-terminal His6-tag of pET-28a
T3 sequence: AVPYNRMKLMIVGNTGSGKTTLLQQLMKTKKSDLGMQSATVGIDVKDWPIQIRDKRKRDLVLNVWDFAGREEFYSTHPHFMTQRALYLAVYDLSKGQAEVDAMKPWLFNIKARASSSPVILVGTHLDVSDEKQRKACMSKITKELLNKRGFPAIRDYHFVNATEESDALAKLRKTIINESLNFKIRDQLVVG
Described as above. In short, it runs like this:
as §4

The target of assay [5] is T4, LRRK2 RocCOR domain construct (human, UniProt Q5S007 1334-1840).
T4 construct: A second construct (residues 1293-1840, N-terminal His6-MBP) was used in certain screening experiments; not shown: N-terminal Twin-Strep-tag; C-terminal His10-tag
T4 sequence: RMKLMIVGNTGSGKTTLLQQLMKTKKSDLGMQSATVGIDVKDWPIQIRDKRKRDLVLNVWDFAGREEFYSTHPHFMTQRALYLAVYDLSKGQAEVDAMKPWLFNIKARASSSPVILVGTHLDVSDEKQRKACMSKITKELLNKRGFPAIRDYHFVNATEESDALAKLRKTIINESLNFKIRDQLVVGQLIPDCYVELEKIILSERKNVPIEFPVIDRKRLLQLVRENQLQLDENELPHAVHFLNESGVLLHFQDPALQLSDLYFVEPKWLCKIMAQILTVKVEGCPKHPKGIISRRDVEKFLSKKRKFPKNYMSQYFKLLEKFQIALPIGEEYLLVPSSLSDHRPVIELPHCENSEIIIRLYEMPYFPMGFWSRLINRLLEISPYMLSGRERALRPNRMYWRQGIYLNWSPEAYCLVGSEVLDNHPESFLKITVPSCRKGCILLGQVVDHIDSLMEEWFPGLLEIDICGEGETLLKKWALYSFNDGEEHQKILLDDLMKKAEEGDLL
The assay is described as above. In short, it runs like this:
as §4

The target of assay [6] is T1, Full-length human Leucine-rich repeat …. The experiment in a line: ELISA titration on coated LRRK2, Nb detected via its C-terminal EPEA tag, A405 read at 0.5 h. The protocol:
(§5) LRRK2 was coated in the wells of the ELISA plate and the ELISA signal for a dilution series of the respective Nbs (detected via their C-terminal EPEA-tag) is plotted in function of the Nb concentration. […] A “no antigen control”, where no LRRK2 was coated on the bottom of the well, is also included.
(§6) Detection of Nb binding was performed using the C-terminal EPEA tag of the Nbs as described before, resulting in a dose response titration curve reflecting an apparent affinity of the Nbs. […] A “no antigen control”, where no LRRK2 was coated on the bottom of the well, was also included.

Assay [7] has the same target. The experiment in a line: cell-based or functional assay.
Assay [8] shares this target. As to the kind of experiment: BLI; Nb on LRRK2 trapped on streptavidin sensor via biotinylated Nb40; steady-state fit. The protocol:
as §2, §3

The target of assay [9] is T5, LRRK2 kinase-WD40 domain construct (human, UniProt Q5S007 1876-2527).
T5 construct: also called K-WD40; not shown: N-terminal His-tag (pFastBac)
T5 sequence: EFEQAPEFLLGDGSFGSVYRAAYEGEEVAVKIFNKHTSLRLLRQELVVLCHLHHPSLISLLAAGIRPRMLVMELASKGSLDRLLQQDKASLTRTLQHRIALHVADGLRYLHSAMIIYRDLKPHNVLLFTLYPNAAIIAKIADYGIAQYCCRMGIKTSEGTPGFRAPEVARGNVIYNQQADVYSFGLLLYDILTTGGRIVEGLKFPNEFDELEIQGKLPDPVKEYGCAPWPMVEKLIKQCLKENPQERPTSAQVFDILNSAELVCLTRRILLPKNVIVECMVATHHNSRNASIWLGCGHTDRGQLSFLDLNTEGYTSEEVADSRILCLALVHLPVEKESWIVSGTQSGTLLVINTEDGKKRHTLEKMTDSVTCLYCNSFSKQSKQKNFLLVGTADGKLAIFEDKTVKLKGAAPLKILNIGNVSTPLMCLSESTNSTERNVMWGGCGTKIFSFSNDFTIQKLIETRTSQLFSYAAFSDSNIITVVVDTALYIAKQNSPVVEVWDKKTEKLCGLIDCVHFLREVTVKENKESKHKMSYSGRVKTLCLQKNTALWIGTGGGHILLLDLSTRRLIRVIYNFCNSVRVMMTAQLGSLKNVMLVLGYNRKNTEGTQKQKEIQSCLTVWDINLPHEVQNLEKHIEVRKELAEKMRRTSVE
As to the kind of experiment: ELISA, antigen coated on the plate, purified Nb detected via its EPEA tag. In outline:
as §4

Assay [10] deals with T1, Full-length human Leucine-rich repeat …. The experiment in a line: kinase kinetics (PhosphoSens, varied ATP), global fit to mixed inhibition; affinity for apo-LRRK2; enzyme kinetics, mixed inhibition fit; apo-LRRK2. How it is done:
(§7) Full Michaelis-Menten curves (relative velocity versus [ATP]) in presence of different Nb concentrations were collected at 30° C. in a buffer consisting of 50 mM HEPES pH 7.5, 0.1% Brij-35, 50 mM NaCl, 10 mM MgCl₂ and […], using a fixed concentration of AQT0615 (10 μM) and varying concentrations of ATP. The LRRK2 concentration was chosen such that initial rates (linear fluorescence versus time curves) were obtained, and LRRK2, ATP and the Nbs were preincubated at 4° C. for 30 min prior to starting the reaction by adding the peptide substrate. The Michaelis-Menten curves for the different Nb concentrations were globally fit on a mixed-inhibition model using GraphPad Prism, according to the equation: […]

Assay [11] shares this target. The experiment in a line: kinase kinetics (PhosphoSens, varied ATP), global fit to mixed inhibition; ATP-bound LRRK2; enzyme kinetics, mixed inhibition fit; ATP-bound LRRK2. The protocol: as §7
The target is the same in assay [12]. The experiment in a line: MST; LRRK2 titrated to m-TAMRA-labelled Nb, in presence of GTPγS instead of GDP; MST in presence of GTPγS instead of GDP. The protocol: as §1
The target is the same in assay [13]. As to the kind of experiment: ELISA titration on coated LRRK2, Nb detected via its C-terminal EPEA tag, A405 read at 10 h. The protocol: as §5, §6

B1: Nb40 (CA14135) (VHH)
VHH: QVQLVESGGGLVQPGGSLRLSCVASGTIYAINRMGWYRQAPGKQRELVALITLGGGTNYGDSVKGRFTISRDNAKNTGYLQMNSLKPEDTAVYYCKVESSGYTDVFWGQGTQVTVSS
notes: biotinylated form used as trapping agent in BLI
In the case of B1, the Kd in assay [1] was determined as 26 nM; in [2] it was 41 nM. Besides, the binding result in [3], in assay [4] and in [5] was “no binding (tested: not given)” throughout.

B2: Nb6 (CA12618) (VHH)
VHH: QVQLVESGGGLVQAGGSLRLSCAASGSIFSPTAMGWYRQAPGKERELVAGITSGGYTNYRNFARGRFTISRDNAKKTVYLQMNSLNPEDTAVYYCNTLTISWSWGQGTQVTVSS
On to B2, for which the Kd in assay [1] stood at 83 nM; in [8], 7 nM. For the same molecule, in [6], the “EC50 (read off the curve)” value was around 5 nM. The “IC50 of in vitro LRRK2 kinase activity (AQT0615 peptide, PhosphoSens, 1 mM ATP)” value in assay [7] stood at 14000 nM. Besides, the binding result in assay [4] and in assay [9] was “no binding (tested: not given)” throughout. Further, the Ki came out at 5000 nM in [10] and 8000 nM in [11].

B3: Nb42 (CA14259) (VHH)
VHH: QVQLVESGGGLVQAGGSLRLSCAASGDVNYAVGWFRQAPRKEREFVAAINWRGDNTDYTDSVKGRFTISRDNAKNTVYLQMNSLKPEDTAVYYCAAKSAPYWYSDIAPDYWGQGTQVTVSS
notes: biotinylated form used as trapping agent in BLI of Nb40
With B3, the Kd in assay [12] is 94 nM; in assay [8], 82 nM. The binding result in assay [3], in [5] and in assay [9] was “no binding (tested: not given)” in each case.

B4: Nb1 (CA12610) (VHH)
VHH: QVQLVESGGGLVQAGGSLRLSCVASGRIFSGNAMGWYRQAPGRQRELVAGITNGGYTNYRQFVKGRFTISRDNAKRTVYLQMNSLKPEDTAVYYCNALDREARQVDYWGQGTQVTVSS
For B4, the Kd in assay [1] was 91 nM; in [8] it was 114 nM. Besides, the “IC50 of in vitro LRRK2 kinase activity (AQT0615 peptide, PhosphoSens, 1 mM ATP)” value in [7] was 8000 nM. Also, the binding result in [4] and in [9] was “no binding (tested: not given)” in each case. Besides, in [13], the “EC50 (read off the curve)” value is around 10 nM. In addition, the inhibition constant Ki in assay [10] turned out to be 16000 nM; in [11], 30000 nM.
